For this series, the system named is MS2 coat protein. Description: apparent KD of MS2 coat protein; designed switch direction (-1 OFF switch, 1 ON switch): -1; higher = weaker reporter binding. An outline of the steps:
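For each design, the apparent KD is the median over clusters of curves fitted to normalised cluster fluorescence. Clusters held RNA switches with common flanks, transcribed on Illumina chips by stalled E. coli RNA polymerase. These were titrated with SNAP-549-labelled MS2 coat protein, doubling from 0.7 or 1.5 nM to 3 µM, without input, with 200 uM small-molecule ligand, or with an oligonucleotide input.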

[1] abbreviates: Eterna round: R95, input ligand: FMN 200 uM.
Where [2] appears, read: Eterna round: R95, input ligand: microRNA oligo, concentration not stated.
Setting [3] is: Eterna round: R95, input ligand: none.
Setting [4] is: input ligand: microRNA oligo, concentration not stated.

In the case of “GAGGUGUUAGGAUAUCGGAGAUGGAGAAGAACGGGAUGAGCCGAGAAGGAACAUGAGGAUCACCCAUGUAGGUG [JR_Exclu4_Sub031] (puzzle: Exclusion 4)”, the “apparent KD of MS2 coat protein” value by setting is: under setting [1], 415 nM; under setting [2], 420 nM; under setting [3], 553 nM.
For “CUAGAUCUUCGGAUCUAGUACAUGAGGAUCACCCAUGUGACGAGUAUAUCUUCAAACAAGCUUUUUGCUCGUCUUAU [Sensor v3 - Turn-off variant 1 - 24] (puzzle: Sensor v3, turn-off variant 1)”, in that order: 37.3 nM, 49.5 nM and 40.6 nM.
Take “AUAAAACAUGAGGAUCACCCAUGUCAGGAUAUACGAUUCCACCCUAACUGCGUGGAACGUAGAAGGGACAUAGG [Exclusion 1 (MOD6 Esqu)] (Eterna round: R97, puzzle: Exclusion 1)”: the “apparent KD of MS2 coat protein” value is, setting by setting: (input ligand: FMN 200 uM) 62.7 nM; (input ligand: none) 76.4 nM.
Turning to “GGUCUGCGAGGAUAUACAUGAGGAUCACCCAUGUGAGUGAUACUAGUGAGGUCGAUUGGUAGAAGGCGCGGACG [JL-ex3-2.05 salish99 mod] (puzzle: Exclusion 3)”, the “apparent KD of MS2 coat protein” value under setting [1] turned out to be 37 nM, the “apparent KD of MS2 coat protein” value under setting [2] came out at 445 nM and the “apparent KD of MS2 coat protein” value under setting [3] is 839 nM.
Take “GACCUGUGAGGAUAUUAUUAAAGGCCAAGUUAGGCCUUAAUUGAGAAGGCACAUGAGGAUCACCCAUGUUUGAC [Eternabot (L2) Solution 55] (Eterna round: R97, puzzle: Exclusion 4)”: the “apparent KD of MS2 coat protein” value came out at 90.3 nM (input ligand: FMN 200 uM) and 22.3 nM (input ligand: none).
“AAUGUUGUUGUGAGGAUAUCGUAGUUAUUUUGAAACGAGAAGGCACAUGAGGAUCACCCAUGUUUGUUGAUGGU [JR_BMOE4_Sub061] (puzzle: Brourd's mod of Exclusion 4)”: the “apparent KD of MS2 coat protein” value under setting [2] came out at 20.8 nM.
For the sequence “CAGGAGUCAGGAUAUCGUUACCACGGAGUUGCUGUGCAUAACGAGAAGGGACAUGAGGAUCACCCAUGUGCCUC [Eternabot (L1) Solution 98] (Eterna round: R97, puzzle: Exclusion 4)”, the “apparent KD of MS2 coat protein” value turned out to be 57.6 nM (input ligand: FMN 200 uM) and 22.3 nM (input ligand: none).
Regarding “GUGUGAAGUUAGGAUAUGAUCGGACAAGAGCCUUCAGAAGGGACCACAUGAGGAUCACCCAUGUUGUCGGUGGC [Eternabot (L1) Solution 41] (Eterna round: R97, puzzle: Exclusion 6)”, the “apparent KD of MS2 coat protein” value (input ligand: FMN 200 uM) worked out at 20.5 nM and the “apparent KD of MS2 coat protein” value (input ligand: none) worked out at 18.6 nM.
For “AGAUCACAUGAGGAUCACCCAUGUGAGGAUAUAGACUGAAGAGCUUCGGCUCUUCAGUCUAGAAGGCACUAUGA [EX1 #45] (Eterna round: R97, puzzle: Exclusion 1)”, in that order: 28.9 nM and 25.9 nM.
For “UAUAUAUAGUAAGGAUAUGUAUAUAGUUUAUAAACAGAAGGUACUGACAUGAGGAUCACCCAUGUUUUAGUGUGGGCAUGUAGA [JMF's solution 56] (Eterna round: R96, puzzle: Exclusion NG 1)”, the “apparent KD of MS2 coat protein” value under setting [4] turned out to be 61.3 nM.
With “GGACCACAUGAGGAUCACCCAUGUCAGGAUAUGACGGCGUCGGCGAAAGCGGAGGCGGUCAGAAGGGACGGAAA [AK-MS2ROC-r4-exclusion1-9.0] (Eterna round: R97, puzzle: Exclusion 1)”, the “apparent KD of MS2 coat protein” value runs as follows: (input ligand: FMN 200 uM) 84.6 nM; (input ligand: none) 34 nM.
Consider “UAUAUGUUAGGAUAUUAGUAGUAAAUAAAUAAAAUUAUUACUGAGAAGGGACAUGAGGAUCACCCAUGUACCUC [Salish 062 v33] (Eterna round: R97, puzzle: Exclusion 4)”, for which the “apparent KD of MS2 coat protein” value (input ligand: FMN 200 uM) came out at 21.9 nM and the “apparent KD of MS2 coat protein” value (input ligand: none) is 12.7 nM.
With “UUGAUUCAUUCCUCUAUAAACAUGAGGAUCACCCAUGUAAGUGAGGAUAUAGUUGGAGUUGUAUACUAGAAGGCACUUAGUUUU [JR_ExcNG3_Sub048] (Eterna round: R96, puzzle: Exclusion NG 3)”, the “apparent KD of MS2 coat protein” value (input ligand: FMN 200 uM) worked out at 26 nM, the “apparent KD of MS2 coat protein” value under setting [4] is 8.29 nM and the “apparent KD of MS2 coat protein” value (input ligand: none) stood at 13 nM.
For “CCUGCGGACAAAGGAUAUUGCGGUGACCGGCUCGGCGUACCGAGCCUACAUGAGGAUCACCCAUGUAAGAAGGUUGUCGCUGGU [JL ViennaUCT Qudice mod 2] (Eterna round: R96, puzzle: Exclusion NG 2)”, in that order: 104 nM, 19.1 nM and 24.8 nM.
As for “AAAAGAGUAGGAUAUCUGACGCGAAACAUGAGGAUCACCCAUGUAGGGCGGUCCUGCUUAAGAGAAGGGCUCAAAU [Sodirira] (puzzle: Exclusion 5)”, the “apparent KD of MS2 coat protein” value under setting [2] came out at 88.9 nM.
“AAAACGUCAGGAUAUACGAAAUAAAAUAAAAUAAAAUAAAAGUAGAAGGGACAUGAGGAUCACCCAUGUAAUAA [Exclusion 4 #1] (puzzle: Exclusion 4)”: the “apparent KD of MS2 coat protein” value stood at 43.7 nM under setting [1], 26.6 nM under setting [2] and 36.2 nM under setting [3].
On to “AUCGUGUGAGGAUAUCGAUCAUGGAGGUCUAGGUCUAUGCGCGAGAAGGCACAUGAGGAUCACCCAUGUAAUGG [jl-ex4-4.29 ViennaUCT mod] (Eterna round: R97, puzzle: Exclusion 4)”, for which the “apparent KD of MS2 coat protein” value by setting is: (input ligand: FMN 200 uM) 59.9 nM; (input ligand: none) 636 nM.
For “CAGAGCUUUUACUCGUCUUACAUGAGGAUCACCCAUGUCUCCUAGUGGGUAAAAUAUUAAGAAGAAAUUCUUAAUAA [jun14#1] (Eterna round: R97, puzzle: Sensor, turn-off variant 1)”, in that order: 125 nM and 145 nM.
Regarding “CCGGUUGGCGCAGGAUAUACAUGAGGAUCACCCAUGUUCAUGAGGAUCACCUAUGAGUUUUUGUUGUAGAAGGGUGGCCCGGCC (Eterna round: R96, puzzle: Exclusion NG 2)”, the “apparent KD of MS2 coat protein” value by setting is: (input ligand: FMN 200 uM) 53.1 nM; under setting [4], 39.1 nM; (input ligand: none) 52.9 nM.
With “UCUGCCGCUGUGAGGAUAUGCCCAAAUAAAAGCGGGCAGAAGGCACAUGAGGAUCACCCAUGUCCUGCGGUUUU [salish99_bmx4_r4_143] (Eterna round: R97, puzzle: Brourd's mod of Exclusion 4)”, the “apparent KD of MS2 coat protein” value (input ligand: FMN 200 uM) turned out to be 180 nM and the “apparent KD of MS2 coat protein” value (input ligand: none) is 28.8 nM.
For “AAUUCCGUAGGAUAUGGGAACCGGGACAUGAGGAUCACCCAUGUGAAGGAUGUCCCAACACCAGAAGGACGCAGCA [EX5 A.14] (Eterna round: R97, puzzle: Exclusion 5)”, in that order: 47 nM and 25.9 nM.
On to “UCAGGCGAUGUCAGGAUAUCGGCUGCCCAAUUGGCUGAGAAGGGACAUGAGGAUCACCCAUGUUAGAUCCAGCC [BmEX4 A.25] (Eterna round: R97, puzzle: Brourd's mod of Exclusion 4)”, for which the “apparent KD of MS2 coat protein” value stood at 30.2 nM (input ligand: FMN 200 uM) and 16.9 nM (input ligand: none).
For the sequence “AAAUCUGCUGAGGAUAUGAUGACUGAGAGGUCAUCAGAAGGCGGUACAUGAGGAUCACCCAUGUCUAUGGGCAA [Ex-6 Malc#30] (puzzle: Exclusion 6)”, the “apparent KD of MS2 coat protein” value under setting [2] was found to be 243 nM.
On the same count and under the same terms, the figure for “UAAGUGUGAGGAUAUGGUAAAGAUAAGAUGAUGAAAGAACUCCAGAAGGCACAUGAGGAUCACCCAUGUAGAUG [JL-ex4-2.11 Jieux mod] (puzzle: Exclusion 4)” is 35.3 nM; for “GGUGCGUAUGUGAGGAUAUGCUGGUCCUUGGCUCGGCAGAAGGCACAUGAGGAUCACCCAUGUGGUGUCGUACU [salish99_Bmod_ex4_068] (puzzle: Brourd's mod of Exclusion 4)” it is 96.8 nM.
The same measure, in the same setting: next, “CUGUAACAUGAGGAUCACCCAUGUCAGGAUAUCUAUCAUAGCAUCGAAAGAUGCGGGUAGAGAAGGGACUAUCC [ChP Ext 10-04-2015 #8] (puzzle: Exclusion 1)”: 14.5 nM; “CUUUAGUGAGGAUAUCAGUAGUAAUACAAUAGUAUUACUAUUGAGAAGGCACAUGAGGAUCACCCAUGUUCCUC [Mat - Exclusion 4 - Mod of Omei - D80] (puzzle: Exclusion 4)”: 27.2 nM.
With “CCCGGGUCAGGAUAUGGGCCCGGGCCCGAAAGGGCCCGGGCCCAGAAGGGACAUGAGGAUCACCCAUGUCCGGG [-53.1, -50.9 kcal, 20% A] (Eterna round: R97, puzzle: Exclusion 4)”, the “apparent KD of MS2 coat protein” value (input ligand: FMN 200 uM) amounted to 26.7 nM and the “apparent KD of MS2 coat protein” value (input ligand: none) was determined as 24.3 nM.
In the case of “UACAUGAGGAUCACCCAUGUUUUGUCGUGUAUGGUAUUUAUCUAGGAUAUCAAGUUAUUUAUUUAUGAGAAGGAGAAUAUUAAU [JMF's solution 10] (Eterna round: R96, puzzle: Exclusion NG 3)”, the “apparent KD of MS2 coat protein” value reads like this: (input ligand: FMN 200 uM) 40 nM; under setting [4], 30.7 nM; (input ligand: none) 37.3 nM.
Turning to “UUUUGGCAAGCGAGAUCCUACAUGAGGAUCACCCAUGUUGACCAUGGUUUCCAUGGUCUUUUUGCUCGUCUUGUGUG [jl TITIN mod 3] (Eterna round: R97, puzzle: Sensor, turn-off variant 1)”, the “apparent KD of MS2 coat protein” value is, setting by setting: (input ligand: FMN 200 uM) 21.1 nM; (input ligand: none) 23.1 nM.
With “UAUUACCUAGGAUAUACAUGAGGAUCACCCAUGUCACGGGUCAACUUGUCCUAUGCGUGUAGAAGGAGGGACCC [JL Ceriza mod 6] (puzzle: Exclusion 3)”, the “apparent KD of MS2 coat protein” value under setting [2] amounted to 18.9 nM.
For the sequence “GCGUUCUGAGGAUAUACAUGAGGAUCACCCAUGUUGAGAAGAAAGUAUAAAAGAUUGUGUAGAAGGCAGAGUGC [JR_Ex3_Sub070] (Eterna round: R97, puzzle: Exclusion 3)”, the “apparent KD of MS2 coat protein” value came out at 112 nM (input ligand: FMN 200 uM) and 38.4 nM (input ligand: none).

The record behind these values is the supplement of paper PMC9170038.
